Measured values published in PMC3920545 (Journal of molecular biology, 2012).

Biological target: human Toll-like receptor 3 ectodomain (TLR3ecd) (Homo sapiens, UniProt O15455)
Assay: SPR

Kd: 29.1 pM
koff: 0.000103 s⁻¹
kon: 3.54e+06 M⁻¹ s⁻¹
B1: Fab1068 (Fab, V domains shown)
VH: QVQLQQPGAELVQPGTSVRLSCKASGYIFTTYWIHWVKQRPGQGLEWIGEINPNNGRINYNEKFKTKATLTVDKSSSTAYMQLSSLTSEDSAVYYCTRVGVMITTFPYWGQGTLVTVSA
VL: DIQMTQSPASLSASVGETVTITCRASGNIHNYLAWYQQKQGKSPQLLVYNAKTLADGVPSRFSGSESGTQYSLKINSLQPEDFGSYYCQHFWSTPFTFGSGTKLELK
